Test results taken from patent US11912794B2, “Modulation of structured polypeptide specificity” (BicycleRD Limited, priority 2011, dated 2024).
Ends that are not written are not given here.

Biological target: T1, Biotinylated hPK (Homo sapiens, UniProt P03952)
T1 construct: IHPKA, from human plasma; purchased Innovative Research, Novi, MI, USA IHPKA; host or cells: human plasma
Experiment: Phage selections, abundance of sequences in selection outputs
Format: binding
Conditions: for Frequency (relative abundance in the total selection outputs): randomised WPAR motif at positions 2, 3, 4 & 5 within the 06-34-03 sequence
Experimental: Glycerol stocks of phage libraries were diluted to OD600=0.1 in 500 ml 2YT/chloramphenicol (30 μg/ml) cultures and phage were produced at 30° C. over night (15-16 hrs). Phage were purified and chemically modified as described in Heinis, et al., Nat Chem Biol 2009, 5 (7), 502-7 Biotinylated hPK (3 μg) (IHPKA, from human plasma, Innovative Research, Novi, MI, USA) was incubated with 50 μl pre-washed magnetic streptavidin beads (Dynal, M-280 from Invitrogen, Paisley, UK) for 10 minutes at RT. […] Blocked beads were then mixed with the blocked chemically modified phage and incubated for 30 minutes on a rotating wheel at RT. Beads were washed 8 times with washing buffer containing 0.1% Tween 20 and twice with washing buffer before incubation with 100 μl of 50 mM glycine, pH 2.2 for 5 minutes. Eluted phage were transferred to 50 μl of 1 M Tris-Cl, pH 8 for neutralization, incubated with 30 ml TG1 cells at OD600=0.4 for 90 minutes at 37° C. and the cells were plated on large 2YT/chloramphenicol plates. One or two additional rounds of panning were performed using the same procedures. In the second round of selection, neutravidin-coated magnetic beads were used to prevent the enrichment of streptavidin-specific peptides. The neutravidin beads were prepared by reacting 0.8 mg neutravidin (Pierce, Rockford, IL, USA) with 0.5 ml tosyl-activated magnetic beads (Dynal, M-280 from Invitrogen, Paisley, UK) according to the supplier's instructions.
The WPAR (SEQ ID NO: 18) motif identified from Example 1 was analysed in the context of the 06-34-03 peptide, in order to identify alternatives or improvements to the WPAR (SEQ ID NO: 18) motif. A library was constructed where positions 1, 6, 7, 8, 9 &10 of 06-34-03 were fixed and positions 2, 3, 4 & 5 were randomised (see ‘Randomisation of peptide domains—Library construction’ in Methods above). Selections against human plasma Kallikrein were performed at a variety of stringencies (see Phage selections' in Methods above). All output sequences were identified and analysed for target binding (see ‘Randomisation of peptide domains—Assay of binding of individual clones’ in Methods above). Table 17 lists each unique sequence, its relative abundance in the selection output (frequency), and a rank number according to target binding strength.

[1] = 2nd stringency from High (1st value of cell)
[2] = 3rd stringency from High (2nd value of cell)
[3] = 4th stringency from High (3rd value of cell)
[4] = 5th stringency from High (4th value of cell)

T1 sequence (P03952 20-638): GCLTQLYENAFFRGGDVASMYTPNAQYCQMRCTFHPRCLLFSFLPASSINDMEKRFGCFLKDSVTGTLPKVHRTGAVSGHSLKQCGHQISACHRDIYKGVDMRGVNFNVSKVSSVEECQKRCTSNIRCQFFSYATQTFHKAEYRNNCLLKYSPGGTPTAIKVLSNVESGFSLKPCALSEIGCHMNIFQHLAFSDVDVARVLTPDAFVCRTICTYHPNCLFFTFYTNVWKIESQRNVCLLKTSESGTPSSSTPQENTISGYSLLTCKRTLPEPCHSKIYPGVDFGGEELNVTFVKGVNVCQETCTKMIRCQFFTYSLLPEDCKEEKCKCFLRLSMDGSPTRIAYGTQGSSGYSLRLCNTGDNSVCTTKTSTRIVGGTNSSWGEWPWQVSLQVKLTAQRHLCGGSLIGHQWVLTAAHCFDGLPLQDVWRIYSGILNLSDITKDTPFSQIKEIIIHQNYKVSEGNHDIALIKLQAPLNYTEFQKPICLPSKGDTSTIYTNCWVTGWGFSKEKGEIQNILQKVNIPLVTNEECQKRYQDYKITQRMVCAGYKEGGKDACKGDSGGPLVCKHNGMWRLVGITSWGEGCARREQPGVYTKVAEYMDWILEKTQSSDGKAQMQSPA

Substance | Frequency (relative abundance in the total selection outputs) | other results
FPFR: phage clone: FPFR at positions 2-5 within the 06-34-03 sequence, TBMB-cyclised (also: TBMB-cyclised within the 06-34-03 context, the cysteines lie outside this motif) | – | Relative abundance of motif in selection output [1]: 19%; Relative abundance of motif in selection output [2]: 9%; Relative abundance of motif in selection output [3]: 4%; Relative abundance of motif in selection output [4]: 13%; Relative abundance of motif in selection output (stringency High): 7%; Relative abundance of motif in selection output (stringency LOW): 11%
FPYR: phage clone: FPYR at positions 2-5 within the 06-34-03 sequence, TBMB-cyclised (also: TBMB-cyclised within the 06-34-03 context, the cysteines lie outside this motif) | – | Relative abundance of motif in selection output [1]: 3%; Relative abundance of motif in selection output [2]: 3%; Relative abundance of motif in selection output [3]: 7%; Relative abundance of motif in selection output [4]: 16%; Relative abundance of motif in selection output (stringency High): 7%; Relative abundance of motif in selection output (stringency LOW): 4%
SEQ ID NO: 73 (CSWPARCTHQDLC; Synthetic sequence Kallikrein binder identified from selections using a randomised WPAR motif at positions 2, 3, 4 & 5 within the 06-34-03 sequence of PCT/EP2012/069898 (SEQ ID NO 58)) | 24 | –
SEQ ID NO: 74 (CSWPSRCTHQDLC; Synthetic sequence Kallikrein binder identified from selections using a randomised WPAR motif at positions 2, 3, 4 & 5 within the 06-34-03 sequence of PCT/EP2012/069898 (SEQ ID NO 58)) | 51 | –
SEQ ID NO: 76 (CSWLARCTHQDLC; Synthetic sequence Kallikrein binder identified from selections using a randomised WPAR motif at positions 2, 3, 4 & 5 within the 06-34-03 sequence of PCT/EP2012/069898 (SEQ ID NO 58)) | 8 | –
SEQ ID NO: 77 (CSFPYRCTHQDLC; Synthetic sequence Kallikrein binder identified from selections using a randomised WPAR motif at positions 2, 3, 4 & 5 within the 06-34-03 sequence of PCT/EP2012/069898 (SEQ ID NO 58)) | 12 | –
SEQ ID NO: 78 (CSFPFKCTHQDLC; Synthetic sequence Kallikrein binder identified from selections using a randomised WPAR motif at positions 2, 3, 4 & 5 within the 06-34-03 sequence of PCT/EP2012/069898 (SEQ ID NO 58)) | 4 | –
SEQ ID NO: 79 (CSWAARCTHQDLC; Synthetic sequence Kallikrein binder identified from selections using a randomised WPAR motif at positions 2, 3, 4 & 5 within the 06-34-03 sequence of PCT/EP2012/069898 (SEQ ID NO 58)) | 1 | –
SEQ ID NO: 80 (CSHPYRCTHQDLC; Synthetic sequence Kallikrein binder identified from selections using a randomised WPAR motif at positions 2, 3, 4 & 5 within the 06-34-03 sequence of PCT/EP2012/069898 (SEQ ID NO 58)) | 2 | –
SEQ ID NO: 81 (CSHPFRCTHQDLC; Synthetic sequence Kallikrein binder identified from selections using a randomised WPAR motif at positions 2, 3, 4 & 5 within the 06-34-03 sequence of PCT/EP2012/069898 (SEQ ID NO 58)) | 1 | –
SEQ ID NO: 82 (CSWPYRCTHQDLC; Synthetic sequence Kallikrein binder identified from selections using a randomised WPAR motif at positions 2, 3, 4 & 5 within the 06-34-03 sequence of PCT/EP2012/069898 (SEQ ID NO 58)) | 3 | –
SEQ ID NO: 83 (CRFPFKCTHQDLC; Synthetic sequence Kallikrein binder identified from selections using a randomised WPAR motif at positions 2, 3, 4 & 5 within the 06-34-03 sequence of PCT/EP2012/069898 (SEQ ID NO 58)) | 1 | –
SEQ ID NO: 86 (CSWPFRCTHQDLC; Synthetic sequence Kallikrein binder identified from selections using a randomised WPAR motif at positions 2, 3, 4 & 5 within the 06-34-03 sequence of PCT/EP2012/069898 (SEQ ID NO 58)) | 7 | –
SEQ ID NO: 87 (CSFPIRCTHQDLC; Synthetic sequence Kallikrein binder identified from selections using a randomised WPAR motif at positions 2, 3, 4 & 5 within the 06-34-03 sequence of PCT/EP2012/069898 (SEQ ID NO 58)) | 1 | –
SEQ ID NO: 90 (CSYPIRCTHQDLC; Synthetic sequence Kallikrein binder identified from selections using a randomised WPAR motif at positions 2, 3, 4 & 5 within the 06-34-03 sequence of PCT/EP2012/069898 (SEQ ID NO 58)) | 2 | –
SEQ ID NO: 91 (CSWSARCTHQDLC; Synthetic sequence Kallikrein binder identified from selections using a randomised WPAR motif at positions 2, 3, 4 & 5 within the 06-34-03 sequence of PCT/EP2012/069898 (SEQ ID NO 58)) | 10 | –
SEQ ID NO: 93 (CSYPFRCTHQDLC; Synthetic sequence Kallikrein binder identified from selections using a randomised WPAR motif at positions 2, 3, 4 & 5 within the 06-34-03 sequence of PCT/EP2012/069898 (SEQ ID NO 58)) | 1 | –
SEQ ID NO: 94 (CSFPYKCTHQDLC; Synthetic sequence Kallikrein binder identified from selections using a randomised WPAR motif at positions 2, 3, 4 & 5 within the 06-34-03 sequence of PCT/EP2012/069898 (SEQ ID NO 58)) | 1 | –
SEQ ID NO: 95 (CSFPWRCTHQDLC; Synthetic sequence Kallikrein binder identified from selections using a randomised WPAR motif at positions 2, 3, 4 & 5 within the 06-34-03 sequence of PCT/EP2012/069898 (SEQ ID NO 58)) | 1 | –
SEQ ID NO: 96 (CSWHARCTHQDLC; Synthetic sequence Kallikrein binder identified from selections using a randomised WPAR motif at positions 2, 3, 4 & 5 within the 06-34-03 sequence of PCT/EP2012/069898 (SEQ ID NO 58)) | 1 | –
SEQ ID NO: 98 (CSYPYRCTHQDLC; Synthetic sequence Kallikrein binder identified from selections using a randomised WPAR motif at positions 2, 3, 4 & 5 within the 06-34-03 sequence of PCT/EP2012/069898 (SEQ ID NO 58)) | 2 | –
SEQ ID NO: 99 (CSWWARCTHQDLC; Synthetic sequence Kallikrein binder identified from selections using a randomised WPAR motif at positions 2, 3, 4 & 5 within the 06-34-03 sequence of PCT/EP2012/069898 (SEQ ID NO 58)) | 1 | –
